This series deals with the molecule itself. Description: SEC; analytical gel filtration of the purified protein on its own; S200/26-60 column, 20 mM HEPES-Na pH 7.5, 250 mM NaCl, 10 mM KCl, 10 mM MgCl2; fractions analysed by SDS-PAGE. Background: In gel filtration, larger molecules generally elute earlier.

B1: BacE carrying a hexa-histidine tag (his6-yhbE) (natural protein, Bacillus subtilis, UniProt P39132 1-237, looked up)
chain: MDVVEKLVINGSGSSKGGTFQSVEINGSGTVAGDVECDTFSFNGNGKADGSVKAKAVTISGSGKIHGDVEAESIRMNGTGFIQGEVSAKQLKIAGSSTFGGTVKADGIDISGKAVMEADCETETFQSEGKCKISGLLNADQVIIKLSAGESYAREIGCRHLQVTCRKGMLTLLRLMPQPVLTAELIEGDVIELTNTKAKTVRGNKVIIGPDCQIETVEYSGDYTCDPSASVETSTKL
notes: Bactofilin BacE, product of yhbE, Bacillus subtilis; full-length yhbE cloned into pET16b or pET24d; source: E. coli BL21 (DE3); also coexpressed with untagged BacF, in cell extract
In the case of B1, the binding result is “binds”.

B2: BacF carrying a hexa-histidine tag (6-His-BacF) (natural protein, Bacillus subtilis, UniProt P39133 1-235, looked up)
chain: METTKLGNLKLYGAGHAAGGAYHNVSIKGEGIVGEGLSAVGCRIYGTGLFLGKAETERLRVLGESECKGDLTAGKINIYGTMKVSGSLQFDRFNLKGQTEIGGNMTGESCDVKGKLSVIGDCETEMFHVTGCVDVSGLLNSGEIKLGLSHDISHVQEIGGTTITVKRRASFFSRKKGKLIADVIEGDRVYLENTEAAVVRGKEVIIGPGCSIGTIEYEYKCECDPHSQIKEKTKL
notes: Bactofilin BacF, product of yhbF, Bacillus subtilis; full-length yhbF cloned into pET16b or pET24d; also called YhbF; his6-yhbF; source: E. coli BL21 (DE3); also coexpressed with untagged BacE, in cell extract
For the protein B2, the binding result was “binds”.

The values are drawn from PMC4627819, “Bacillus subtilis Bactofilins Are Essential for Flagellar Hook- and Filament Assembly and Dynamically Localize into Structures of Less than 100 nm Diameter underneath the Cell Membrane” (PLoS ONE, 2015).
